Residue numbers refer to the chain shown, from its start.

B1: E01 (antibody, human IgG1, lambda, L234A L235A, V domains shown)
VH: EVQLVESGGGLVQPGGSLKLSCAASGFTFNTYAMNWVRQASGKGLEWVARIRSKYNNYATYYADSVKDRFTISRDDSKNTAYLQMNSLKTEDTAVYYCVRHGNFGNSYVSWFAYWGQGTLVTVSS
VL: QAVVTQEPSLTVSPGGTVTLTCRSSTGAVTTSNYANWFQQKPGQAPRTLIYGTNKRAPWTPARFSGSLLGGKAALTLSGAQPEDEAEYYCALWYSNLWVFGGGTKLTVLG
B2: E14 (antibody, human IgG1, lambda, L234A L235A, V domains shown)
VH: B1 VH
VL: B1 VL with F38V, T48G, G71D
B3: E11 (antibody, human IgG1, lambda, L234A L235A, V domains shown)
VH: B1 VH
VL: B1 VL with F38V, Y51G
B4: A09 (antibody, human IgG1, lambda, L234A L235A, V domains shown)
VH: B1 VH with A49G
VL: B1 VL with F38V
B5: E07 (antibody, human IgG1, lambda, L234A L235A, V domains shown)
VH: B1 VH
VL: B1 VL with T48G, Y51G
B6: E03 (antibody, human IgG1, lambda, L234A L235A, V domains shown)
VH: B1 VH
VL: B1 VL with Y51G
B7: F09 (antibody, human IgG1, lambda, L234A L235A, V domains shown)
VH: B1 VH with A81L
VL: B1 VL with F38V
B8: E02 (antibody, human IgG1, lambda, L234A L235A, V domains shown)
VH: B1 VH
VL: B1 VL with G71D
B9: A01 (antibody, human IgG1, lambda, L234A L235A, V domains shown)
VH: B1 VH with A49G
VL: B1 VL
B10: E10 (antibody, human IgG1, lambda, L234A L235A, V domains shown)
VH: B1 VH
VL: B1 VL with F38V, G71D
B11: E09 (antibody, human IgG1, lambda, L234A L235A, V domains shown)
VH: B1 VH
VL: B1 VL with F38V
B12: F06 (antibody, human IgG1, lambda, L234A L235A, V domains shown)
VH: B1 VH with A81L
VL: B1 VL with T48G, G71D
B13: F10 (antibody, human IgG1, lambda, L234A L235A, V domains shown)
VH: B1 VH with A81L
VL: B1 VL with F38V, G71D
B14: E04 (antibody, human IgG1, lambda, L234A L235A, V domains shown)
VH: B1 VH
VL: B1 VL with Y51G, G71D
B15: E06 (antibody, human IgG1, lambda, L234A L235A, V domains shown)
VH: B1 VH
VL: B1 VL with T48G, G71D
B16: F05 (antibody, human IgG1, lambda, L234A L235A, V domains shown)
VH: B1 VH with A81L
VL: B1 VL with T48G
B17: E08 (antibody, human IgG1, lambda, L234A L235A, V domains shown)
VH: B1 VH
VL: B1 VL with T48G, Y51G, G71D
B18: F04 (antibody, human IgG1, lambda, L234A L235A, V domains shown)
VH: B1 VH with A81L
VL: B1 VL with Y51G, G71D
B19: F03 (antibody, human IgG1, lambda, L234A L235A, V domains shown)
VH: B1 VH with A81L
VL: B1 VL with Y51G
B20: F01 (antibody, human IgG1, lambda, L234A L235A, V domains shown)
VH: B1 VH with A81L
VL: B1 VL
B21: E12 (antibody, human IgG1, lambda, L234A L235A, V domains shown)
VH: B1 VH
VL: B1 VL with F38V, Y51G, G71D
B22: E13 (antibody, human IgG1, lambda, L234A L235A, V domains shown)
VH: B1 VH
VL: B1 VL with F38V, T48G
B23: F08 (antibody, human IgG1, lambda, L234A L235A, V domains shown)
VH: B1 VH with A81L
VL: B1 VL with T48G, Y51G, G71D
B24: F02 (antibody, human IgG1, lambda, L234A L235A, V domains shown)
VH: B1 VH with A81L
VL: B1 VL with G71D
B25: F07 (antibody, human IgG1, lambda, L234A L235A, V domains shown)
VH: B1 VH with A81L
VL: B1 VL with T48G, Y51G
B26: E05 (antibody, human IgG1, lambda, L234A L235A, V domains shown)
VH: B1 VH
VL: B1 VL with T48G

recombinant cynomolgus monkey CD3ε/δ heterodimer (cynomolgus monkey), sequence (Q95LI5 22-117, stated change not applied, chain 1 of 2): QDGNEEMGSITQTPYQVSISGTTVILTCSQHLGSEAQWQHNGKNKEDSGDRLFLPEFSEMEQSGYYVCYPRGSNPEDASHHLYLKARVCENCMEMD
recombinant cynomolgus monkey CD3ε/δ heterodimer (cynomolgus monkey), sequence (Q95LI8 22-105, stated change not applied, chain 2 of 2, further chain): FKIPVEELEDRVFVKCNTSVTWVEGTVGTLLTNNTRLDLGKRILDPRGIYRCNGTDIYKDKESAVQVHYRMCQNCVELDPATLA
recombinant human CD3ε/δ heterodimer (human), sequence (P07766 23-126, stated change not applied, chain 1 of 2): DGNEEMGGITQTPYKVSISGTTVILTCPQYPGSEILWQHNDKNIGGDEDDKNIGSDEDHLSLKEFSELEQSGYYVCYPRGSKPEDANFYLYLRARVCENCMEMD
recombinant human CD3ε/δ heterodimer (human), sequence (P04234 22-105, stated change not applied, chain 2 of 2, further chain): as the sequence (Q95LI8 22-105, stated change not applied, chain 2 of 2, further chain) above, with V5I, K15N, V20I, T32S, N33D, N34I, A64T, N74S, L83V counted along it

One assay concerns the target recombinant cynomolgus monkey CD3ε/δ heterodimer (cynomolgus monkey) (UniProt Q95LI5). Briefly: ELISA, coated CD3ε/δ.
Regarding B1, the Absorbance (450 nm) turned out to be 0.078.
The same measure, in the same setting: in the case of B2 it was 0.078; in that of B3, 0.075; in that of B4, 0.05.
The same measure, in the same setting: in the case of B5 it was 0.115; in that of B6, 0.076; in that of B7, 0.084.
For the molecule B8, the Absorbance (450 nm) was 0.07.
Still for that read-out and setting: in the case of B9 it was 0.098; in that of B10, 0.065; in that of B11, 0.084.
Same read-out and setting: in the case of B12 it was 0.096; in that of B13, 0.091; in that of B14, 0.067.
The same measure, in the same setting: in the case of B15 it was 0.086.
For the molecule B16, the Absorbance (450 nm) was 0.075.
The same measure, in the same setting: in the case of B17 it was 0.099; in that of B18, 0.069; in that of B19, 0.101.
The same measure, in the same setting: in the case of B20 it was 0.086.
Same read-out and setting: in the case of B21 it was 0.064; in that of B22, 0.114.
As to B23, the Absorbance (450 nm) worked out at 0.18.
Still for that read-out and setting: in the case of B24 it was 0.076; in that of B25, 0.163; in that of B26, 0.068.

Another assay addresses recombinant human CD3ε/δ heterodimer (human) (UniProt P07766). Briefly: ELISA, coated CD3ε/δ. A general note: An ELISA detects its analyte on a solid surface through an enzyme-linked reagent.
In the case of B1, the Absorbance (450 nm) was determined as 0.1.
The same measure, in the same setting: in the case of B2 it was 0.105; in that of B3, 0.098; in that of B4, 0.092.
Still for that read-out and setting: in the case of B5 it was 0.109.
For the molecule B6, the Absorbance (450 nm) turned out to be 0.134.
The same measure, in the same setting: in the case of B7 it was 0.099.
B8: the Absorbance (450 nm) is 0.095.
For the molecule B9, the Absorbance (450 nm) was determined as 0.152.
Same read-out and setting: in the case of B10 it was 0.083.
Still for that read-out and setting: in the case of B11 it was 0.096; in that of B12, 0.115.
On the same count and under the same terms, in the case of B13 it was 0.118.
On to B14, for which the Absorbance (450 nm) came out at 0.087.
Turning to B15, the Absorbance (450 nm) amounted to 0.112.
Still for that read-out and setting: in the case of B16 it was 0.105; in that of B17, 0.074; in that of B18, 0.084.
Consider B19, for which the Absorbance (450 nm) turned out to be 0.128.
Take B20: the Absorbance (450 nm) worked out at 0.118.
The same measure, in the same setting: in the case of B21 it was 0.088; in that of B22, 0.139; in that of B23, 0.134.
Still for that read-out and setting: in the case of B24 it was 0.093; in that of B25, 0.133.
Still for that read-out and setting: in the case of B26 it was 0.085.

Values taken from patent US20200317779A1.
